Assay [1] has as its target T1, human IL-1β (human, UniProt P01584 117-269).
T1 construct: mature; also called mature human IL-1β; Interleukin-1β
The assay is described as follows: competition ELISA on coated human IL-1β against biotinylated Mu007, average of three experiments. Here is the method: Wells of 96-well ELISA plates (Nunc-lmmuno plate, Cat # 439454, NalgeNunc) were coated with 100 μL of 0.5. μg/mL of human IL-1β in 0.2M sodium carbonate-bicarbonate buffer (pH 9.4) overnight at 4° C., washed with Wash Buffer, blocked with Superblock blocking buffer for 30 min at 37° C., and washed again with Wash Buffer. A mixture of biotinylated Mu007 (0.16 μg/mL final concentration) and competitor antibody (Mu007, Hu007, or Hu007 analogs starting at 100 μg/mL final concentration and serial 3-fold dilutions) in ELISA Buffer were added in triplicate in a final volume of 100 μL per well. As a no-competitor control, 100 μL of 0.16 μg/mL biotinylated Mu007 was used. As a background control, 100 gLL of ELISA Buffer was used. ELISA plates were incubated at 37° C. for 2 hr. After washing the wells with Washing Buffer, 100 μL of 1 μg/mL HRP-conjugated streptavidin (Jackson ImmunoResearch) was added to each well. ELISA plates were incubated at room temperature for 30 min and washed with Washing Buffer. For color development, 100 μL/well of ABTS substrate was added. Color development was stopped by adding 100 μL/well of 2% oxalic acid. Absorbance was read at 415 nm.
Mu007, Hu007 and Hu007 analogs competed with biotinylated Mu007 in a concentration-dependent manner. […]

The target of the next assay is T2, mouse IL-1β (mouse, UniProt P10749 118-269).
T2 sequence (looked up): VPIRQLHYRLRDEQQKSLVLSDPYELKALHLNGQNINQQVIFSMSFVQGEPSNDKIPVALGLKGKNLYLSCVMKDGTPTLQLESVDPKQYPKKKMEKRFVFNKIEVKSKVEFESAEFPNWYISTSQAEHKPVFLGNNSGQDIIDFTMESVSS
Kind of assay: BIAcore, antibody captured on anti-IgG chip, ligand flowed. Here is the method:
(§1) Affinities and specificities of both Hu007 and Mu007 were determined using BlAcore measurements. BIAcore™ is an automated biosensor system that measures molecular interactions. (Karlsson, et al. (1991) J. Immunol. Methods 145: 229-240). In these experiments antibody was immobilized at low density on a BIAcore™ chip. Ethyl-dimethylaminopropyl-carbodiimide (EDC) was used to couple reactive amino groups to purified goat anti-human IgG or goat anti-rabbit IgG to a flow cell of a carboxy-methyl (CM5) BIAcore™ sensor chip. Goat IgG was diluted in sodium acetate buffer, pH 4.0, and immobilized on a flow cell of a CM5 chip using EDC to yield 1000 response units. Unreacted sites were blocked with ehanolamine. A flow rate of 60 μL/min was used. Multiple binding/elution cycles were performed by injection a 100 μL solution of 15 μg/mL Mu007 or Hu007 followed by human IL-1β, mouse IL-1β, rat IL-1β, cynomolgus monkey IL-1β, porcine IL-1β, human IL-1 receptor antagonist, and human IL-1α at decreasing concentrations for each cycle (e.g., 1500, 750, 375, 188, 94, 47, 23.5, 12, and 0 picomolar). Elution was performed with glycine-HCl, pH 1.5. BIAevaluation™ was used to analyze the kinetic data. Table 2 depicts the affinities of Hu007 and Mu007 for human and cynomolgus IL-1β. […] Cynomolgus and porcine IL-1β had 100% binding to Hu007 relative to human IL-1β.
In general terms: In SPR one partner is held on a chip, and binding of the other changes the refractive index at the surface.

The target in assay [2] is T1, human IL-1β. The assay is described as follows: cell-based or functional assay.
The target of the next assay is T3, porcine IL-1β (porcine, UniProt P26889 115-267).
T3 sequence (looked up): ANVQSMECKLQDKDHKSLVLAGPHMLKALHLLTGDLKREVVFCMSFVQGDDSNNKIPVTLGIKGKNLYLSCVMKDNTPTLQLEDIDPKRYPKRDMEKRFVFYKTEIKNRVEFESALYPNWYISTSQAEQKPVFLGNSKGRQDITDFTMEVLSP
Kind of assay: BIAcore, antibody captured on anti-IgG CM5 chip, IL-1β flowed. The method, then:
as §1

In the next assay the target is T4, cynomolgus monkey IL-1β (cynomolgus monkey, UniProt P79182 117-268).
T4 construct: also called Cynomolgus IL-1β
T4 sequence (looked up): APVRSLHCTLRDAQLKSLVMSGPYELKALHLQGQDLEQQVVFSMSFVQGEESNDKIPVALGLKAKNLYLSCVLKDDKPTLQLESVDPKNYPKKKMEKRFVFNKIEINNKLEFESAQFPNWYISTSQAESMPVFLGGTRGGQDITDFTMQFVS
The assay is described as above. The method, then: as §1

In assay [3] the target is T1, human IL-1β. The assay is described as above. The method, then:
as §1

Results on one molecule are retold here after US20050070692A1 (published 2005).

B1: humanized antibody Hu007 (antibody, human IgG1, kappa, V domains shown)
VH: QVQLVQSGAEVKKPGASVKVSCKVSGYTFSRYWIEWVRQAPGKGLEWIGEILPGNGNINYNEKFKGKATITADTSTDTAYMELSSLRSEDTAVYYCSTIYYDYDQGFTYWGQGTLVTVSS
VL: DIQMTQSPSSLSASVGDRVTITCKASQDIDRYLSWFQQKPGKAPKSLIYRVKRLVDGVPSRFSGSASGTDYTLTISSLQPEDFATYYCLQYDEFPYTFGQGTKLEIKR
notes: Human IgG1 kappa; also called WT; Hu007 WT
With B1, the IC50 (as a rule, the concentration needed to halve the response being measured) in the assay with human IL-1β [1] amounted to 0.35 µg/mL. For the same molecule, the binding result with mouse IL-1β was “no binding”. Further, in the assay with human IL-1β [2], the “IC50, inhibition of human IL-1β stimulated proliferation” value stood at 57 Picomolar. Also, the “binding relative to human IL-1β” value in the assay with porcine IL-1β and in the assay with cynomolgus monkey IL-1β was 100% each time. For the same molecule, the Kd (commonly the free concentration of one partner at which half of the binding sites on the other are occupied at equilibrium, for simple one-to-one binding) worked out at 0.0104 nM with cynomolgus monkey IL-1β and 0.0102 nM with human IL-1β [3].
